Experimental data from patent publication US20210205413A1 (Nektar Therapeutics, priority 2018, published 2021).

Assays:
[1] = Single dose toxicokinetics in rats (SC, LS-2016-004); type: in vivo, Rat; conditions: mean of three rats per time point
[2] = Single dose pharmacokinetics in mice; type: in vivo, C57BL/6 Mice
CD4 T cells, CD8 T cells = experiment: Single-dose PK/PD study in mice: CD4 and CD8 T cells in blood; type: in vivo, C57BL/6 mice; conditions: single SC 0.3 mg/kg
Excerpt: (§1) Following administration, blood and spleen samples are collected at days 1-7 and day 10 post administration. More particularly, at each time point, blood and spleen samples are collected; samples are pooled and assessed for pharmacodynamic analysis of drug action on lymphocyte cell populations by flow cytometry (see e.g. Example 5), expressed as a fold change relative to vehicle control. In addition to changes in cell numbers, functional markers and markers of activity are quantified. Finally, plasma drug concentration is also assessed.

Tcon proliferation = experiment: In vitro Treg suppression assay (splenic Tregs of treated mice co-cultured with Tcon); type: cell-based, C57BL/6 mice
Protocol: The objective of this study is to assess the inhibitory function of regulatory T cells. […] Treg and Tcon are co-cultured at a range of ratios from 1:2 to 1:512 for three days. Cellular proliferation is evaluated by ^3H-thymidine incorporation over the final 16 hours of the assay, and the % of proliferating cells relative to plate controls is calculated.
Single-cell isolations are prepared for each spleen, and the resultant splenocyte mixtures are pooled for each dose group at each timepoint. A portion of the pooled sample equivalent to one spleen is aliquoted for immune cell profiling. The remaining splenocyte preparation is utilized for isolation of regulatory T cells (Tregs). […]
In vitro suppression assays are carried out in RPMI 1640 medium supplemented with 10% fetal bovine serum, 2 mM L-glutamine, 1 mM sodium pyruvate, 0.5 μM β-mercaptoethanol, and 1× antibiotic/antimycotic (100 units/mL penicillin, 100 μg/mL streptomycin and 250 ng/mL amphotericin B). […] The suppressive capacity of Tregs is assessed by the addition of Tregs to Tcon at different ratios (Treg:Tcon ratios of […] to 1:512). […] After washing cells free from unincorporated [3H]-thymidine, thymidine uptake is measured as counts-per-minute (CPM) using a microplate scintillation counter (TopCount NXT, Perkin Elmer). […]

NK cells = experiment: Single-dose PK/PD study in mice: NK cells; type: in vivo, C57BL/6 mice; conditions: single SC 0.3 mg/kg (highest dose), relative to vehicle control
Excerpt: as §1

[3] = C57BL/6 mice, single SC 0.03 mg/kg, plasma
[4] = C57BL/6 mice, single SC 0.1 mg/kg, plasma
[5] = C57BL/6 mice, single SC 0.3 mg/kg, plasma

Substance: (1,3-bis(methoxypoly(ethylene glycol)10kDcarbamoyl)-2-propanoxy)-4-butanamide)interleukin-2) [RUR20kD-IL-2]
- AUCinf ([1]; single SC 0.01 mg/kg): 5230 ng·h/mL
- AUClast ([1]; single SC 0.01 mg/kg): 5210 ng·h/mL
- Cmax ([1]; single SC 0.01 mg/kg): 60 ng/mL
- Half-life ([1]; single SC 0.01 mg/kg): 33.8 h
- MRTinf ([1]; single SC 0.01 mg/kg): 63.1 h
- tmax ([1]; single SC 0.01 mg/kg): 24 h
- AUCinf ([1]; single SC 0.1 mg/kg): 73000 ng·h/mL
- AUClast ([1]; single SC 0.1 mg/kg): 71100 ng·h/mL
- Cmax ([1]; single SC 0.1 mg/kg): 640 ng/mL
- Half-life ([1]; single SC 0.1 mg/kg): 58.6 h
- MRTinf ([1]; single SC 0.1 mg/kg): 97.9 h
- tmax ([1]; single SC 0.1 mg/kg): 24 h
- AUCinf ([1]; single SC 1.5 mg/kg): 678000 ng·h/mL
- AUClast ([1]; single SC 1.5 mg/kg): 672000 ng·h/mL
- Cmax ([1]; single SC 1.5 mg/kg): 9300 ng/mL
- Half-life ([1]; single SC 1.5 mg/kg): 47.3 h
- MRTinf ([1]; single SC 1.5 mg/kg): 73.7 h
- tmax ([1]; single SC 1.5 mg/kg): 48 h
- AUCinf [2, 3]: 22900 ng·h/mL
- AUClast [2, 3]: 21500 ng·h/mL
- Cmax [2, 3]: 333 ng/mL
- Half-life [2, 3]: 53.8 h
- MRTinf [2, 3]: 83 h
- tmax [2, 3]: 7.92 h
- AUCinf [2, 4]: 102000 ng·h/mL
- AUClast [2, 4]: 97400 ng·h/mL
- Cmax [2, 4]: 1140 ng/mL
- Half-life [2, 4]: 53.8 h
- MRTinf [2, 4]: 81.4 h
- tmax [2, 4]: 7.92 h
- AUCinf [2, 5]: 245000 ng·h/mL
- AUClast [2, 5]: 238000 ng·h/mL
- Cmax [2, 5]: 3330 ng/mL
- Half-life [2, 5]: 44.4 h
- MRTinf [2, 5]: 71.5 h
- tmax [2, 5]: 24 h
- tmax ([2]; mice, SC, range over doses): 7.92 to 24 h
- half-lives ([2]; mice, range over doses): 1.85 to 2.24 days
- changes to CD4 T cells (CD4 T cells, CD8 T cells): modest
- changes to CD8 T cells (CD4 T cells, CD8 T cells): slight decreases
- duration of increased Treg suppressive activity (Tcon proliferation; Treg:Tcon ratio 1:2): maintained for four days
- suppressive capacity of Tregs isolated after administration (Tcon proliferation; Tregs isolated 1 and 4 days post dose, vs vehicle): greatly increased suppressive capacity
- increase in NK cells (NK cells): less than 2 fold
